What follows are binders tested against T1, CD40L over-expressed on Expi293 cells (UniProt P29965 1-261, limits assumed) (assay: flow cytometry, 100 nM antibody, CD40L-Expi293 vs parent Expi293 cells;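 note: ratio is the mean fluorescence intensity on CD40L-overexpressing Expi293 cells divided by the mean fluorescence intensity on parental Expi293 cells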).
T1 construct: whole, on cells; also called cytokine over-expressing Expi293 cells
T1 sequence (looked up): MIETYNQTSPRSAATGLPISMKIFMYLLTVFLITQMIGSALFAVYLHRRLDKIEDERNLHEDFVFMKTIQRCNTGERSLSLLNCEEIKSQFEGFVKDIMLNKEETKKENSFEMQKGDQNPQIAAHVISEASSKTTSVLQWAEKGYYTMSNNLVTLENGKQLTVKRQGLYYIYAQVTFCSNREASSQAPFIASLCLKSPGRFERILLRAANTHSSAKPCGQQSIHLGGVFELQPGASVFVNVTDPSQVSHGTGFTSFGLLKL
Method: All incubations and washes were in buffer containing PBS+1% BSA. MFI Ratio is defined by the mean fluorescence intensity (MFI) of the cytokine over-expressing Expi293 cell over the Expi293 parent cell. […] EC50 was calculated in GraphPad Prism.

Row | Binder | 100 nM FACS (MFI Ratio)
1 | CD40L-64 (VHH) VHH: EVQLVESGGGLVQPGGSLRLSCAASGFTFSRYEMGWFRQAPGKEREMVAAIDDGGNTEYADSVKGRFTISADNSKNTAYLQMNSLKPEDTAVYYCASDHYDTDTKSDVYNWGQGTLVTVSS | 19.4 ratio
2 | CD40L-127 (VHH) VHH: EVQLVESGGGLVQPGGSLRLSCAASGFTFSRYEMGWFRQAPGKERELVASITNGGSTYYADSVKGRFTISADNSKNTAYLQMNSLKPEDTAVYYCASDHYDTDTKSDVYNWGQGTLVTVSS | 11.9 ratio
3 | CD40L-147 (VHH) VHH: EVQLVESGGGLVQPGGSLRLSCAASGFTFSRYEMGWFRQAPGKEREFVATITEGGARNYADSVKGRFTISADNSKNTAYLQMNSLKPEDTAVYYCASDHYDTDTKSDVYNWGQGTLVTVSS | 7.4 ratio
4 | CD40L-88 (VHH) VHH: EVQLVESGGGLVQPGGSLRLSCAASGFTFDDYDMGWFRQAPGKEREFVAAIDWSGGSTYYADSVKGRFTISADNSKNTAYLQMNSLKPEDTAVYYCASDHYDTDTKSDVYNWGQGTLVTVSS | 26 ratio
5 | CD40L-148 (VHH) VHH: EVQLVESGGGLVQPGGSLRLSCAASGFTFGNYDMGWFRQAPGKERELVAAISMSGDDAAYADSVKGRFTISADNSKNTAYLQMNSLKPEDTAVYYCASDHYDTDTKSDVYNWGQGTLVTVSS | 12.5 ratio
6 | CD40L-143 (VHH) VHH: EVQLVESGGGLVQPGGSLRLSCAASGRTFSSYDMGWFRQAPGKEREFVAAIDASGGFTEYADSVKGRFTISADNSKNTAYLQMNSLKPEDTAVYYCASDHYDTDTKSDVYNWGQGTLVTVSS | 8.3 ratio
7 | CD40L-86 (VHH) VHH: EVQLVESGGGLVQPGGSLRLSCAASGRTLTNYDMGWFRQAPGKEREFVAVINSGGGSTQYADSVKGRFTISADNSKNTAYLQMNSLKPEDTAVYYCASDHYDTDTKSDVYNWGQGTLVTVSS | 8.9 ratio
8 | CD40L-136 (VHH) VHH: EVQLVESGGGLVQPGGSLRLSCAASGFTFSDYDMGWFRQAPGKEREFVAAISMSGEDAAYADSVKGRFTISADNSKNTAYLQMNSLKPEDTAVYYCASDHYDTDTKSDVYNWGQGTLVTVSS | 22.4 ratio
9 | CD40L-85 (VHH) VHH: EVQLVESGGGLVQPGGSLRLSCAASGLNLSRLDMGWFRQAPGKEREFVAAVSGSGDDTYYADSVKGRFTISADNSKNTAYLQMNSLKPEDTAVYYCASDHYDTDTKSDVYNWGQGTLVTVSS | 42.6 ratio
10 | CD40L-87 (VHH) VHH: EVQLVESGGGLVQPGGSLRLSCAASGFTFDDYDMGWFRQAPGKEREFVAAISMSGDDAAYADSVKGRFTISADNSKNTAYLQMNSLKPEDTAVYYCASDHYDTDTKSDVYNWGQGTLVTVSS | 18.3 ratio
11 | CD40L-131 (VHH) VHH: EVQLVESGGGLVQPGGSLRLSCAASGFTYGNYDMGWFRQAPGKEREFVAAIYPSGRNAYYADSVKGRFTISADNSKNTAYLQMNSLKPEDTAVYYCASDHYDTDTKSDVYNWGQGTLVTVSS | 12.1 ratio
12 | CD40L-92 (VHH) VHH: EVQLVESGGGLVQPGGSLRLSCAASGFTFDDSDMGWFRQAPGKEREFVAAIDASGGFTEYADSVKGRFTISADNSKNTAYLQMNSLKPEDTAVYYCASDHYDTDTKSDVYNWGQGTLVTVSS | 6.6 ratio
13 | CD40L-138 (VHH) VHH: EVQLVESGGGLVQPGGSLRLSCAASGFTFGNYDMGWFRQAPGKEREFVAVIDTNGGLIAYADSVKGRFTISADNSKNTAYLQMNSLKPEDTAVYYCASDHYDTDTKSDVYNWGQGTLVTVSS | 5.1 ratio
14 | CD40L-128 (VHH) VHH: EVQLVESGGGLVQPGGSLRLSCAASGLTFGTHVMGWFRQAPGKEREFVASIDWSGRSTYYADSVKGRFTISADNSKNTAYLQMNSLKPEDTAVYYCAADVWGLGYDWGQGTLVTVSS | 1.6 ratio
15 | CD40L-71 (VHH) VHH: EVQLVESGGGLVQPGGSLRLSCAASGSIDNIHAMGWFRQAPGKERKFVAVIYSSDGSTLYADSVKGRFTISADNSKNTAYLQMNSLKPEDTAVYYCAAEPYGSGSSLMSEYDWGQGTLVTVSS | 5.9 ratio
16 | CD40L-109 (VHH) VHH: EVQLVESGGGLVQPGGSLRLSCAASGSILSINAMGWFRQAPGKEREFVAVIYSSDGSTLYADSVKGRFTISADNSKNTAYLQMNSLKPEDTAVYYCAAEPYGSGSSLMSEYDWGQGTLVTVSS | 4.7 ratio
17 | CD40L-83 (VHH) VHH: EVQLVESGGGLVQPGGSLRLSCAASGRTSNIYAMGWFRQAPGKEREFIAVIYWRDGSSLYADSVKGRFTISADNSKNTAYLQMNSLKPEDTAVYYCAAEPYGSGSSLISEYDWGQGTLVTVSS | 15.7 ratio
18 | CD40L-110 (VHH) VHH: EVQLVESGGGLVQPGGSLRLSCAASGSSGVINAMGWFRQAPGKEREFIAVIYWRDGSSLYADSVKGRFTISADNSKNTAYLQMNSLKPEDTAVYYCAAEPYGSGSSLISEYDWGQGTLVTVSS | 4.9 ratio
19 | CD40L-97 (VHH) VHH: EVQLVESGGGLVQPGGSLRLSCAASGGTFGHYAMGWFRQAPGKEREFVAVIYSSDGSTLYADSVKGRFTISADNSKNTAYLQMNSLKPEDTAVYYCAAEPYGSGSSLISEYDWGQGTLVTVSS | 8.9 ratio
20 | CD40L-81 (VHH) VHH: EVQLVESGGGLVQPGGSLRLSCAASGGIFGINAMGWFRQAPGKEREFIAVIYWRDGSSLYADSVKGRFTISADNSKNTAYLQMNSLKPEDTAVYYCAAEPYGSGSSLISEYDWGQGTLVTVSS | 6 ratio
21 | CD40L-117 (VHH) VHH: EVQLVESGGGLVQPGGSLRLSCAASGFIGNYHAMGWFRQAPGKEREFIAVIYWRDGSSLYADSVKGRFTISADNSKNTAYLQMNSLKPEDTAVYYCAAEPYGSGSSLISEYDWGQGTLVTVSS | 3.6 ratio
22 | CD40L-78 (VHH) VHH: EVQLVESGGGLVQPGGSLRLSCAASGGTFSVFAMGWFRQAPGKEREFVAVIYSSDGSTLYADSVKGRFTISADNSKNTAYLQMNSLKPEDTAVYYCAAEPYGSGSSLISEYDWGQGTLVTVSS | 8.2 ratio

Each binder was assayed against T2, IL1RL1 (UniProt Q01638 19-328, limits assumed) (assay: SPR (Carterra LSA), antibody amine-coupled, 1:1 model;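 note: HC30M sensor chip at 25 °C in HBS-TE, analyte at rising concentrations in buffer containing 0.5 mg/mL BSA, 5 min association then 15 min dissociation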).
T2 construct: SPR analyte
T2 sequence (looked up): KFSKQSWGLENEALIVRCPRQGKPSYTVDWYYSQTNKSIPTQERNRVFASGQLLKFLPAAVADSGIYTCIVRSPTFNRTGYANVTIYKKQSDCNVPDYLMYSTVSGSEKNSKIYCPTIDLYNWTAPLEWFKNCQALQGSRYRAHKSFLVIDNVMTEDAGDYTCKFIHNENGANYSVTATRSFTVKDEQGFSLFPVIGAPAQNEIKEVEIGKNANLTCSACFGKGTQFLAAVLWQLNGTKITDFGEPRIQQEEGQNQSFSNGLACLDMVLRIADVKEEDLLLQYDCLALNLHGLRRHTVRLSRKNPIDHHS
Method: SPR experiments were performed on a Carterra LSA SPR biosensor equipped with a HC30M chip at 25° C. in HBS-TE. Antibodies were diluted to 10 μg/mL and amine-coupled to the sensor chip by EDC/NHS activation, followed by ethanolamine HCl quenching. Increasing concentrations of analyte were flowed over the sensor chip in HBS-TE with 0.5 mg/mL BSA with 5-minute association and 15-minute dissociation. Following each injection cycle the surface was regenerated with 2× 30-second injections of IgG elution buffer (Thermo). Data were analyzed in Carterra's Kinetics Tool software with 1:1 binding model.

Row | Binder | Kd | koff | kon
23 | IL1RL1-84 (Fc fusion, not shown: a dimerising Fc or GST, VHH-Fc on IgG2 Fc) VHH: EVQLVESGGGLVQPGGSLRLSCAASGGIISNYHMGWFRQAPGKEREGVAAIYSDGSTYYADRVKGRFTISADNSKNTAYLQMNSLKPEDTAVYYCAARPVRVDDISLPVGFDWGQGTLVTVSS | ≤ 0.0673 nM | ≤ 1e-05 s⁻¹ | 149000 M⁻¹ s⁻¹

Reference: US20230265179A1 (TWIST BIOSCIENCE, published 2023)
